Measured values: the supplement of paper PMC9112550, “Optimization of the antimicrobial peptide Bac7 by deep mutational scanning” (BMC Biology, 2022)

Test system: Escherichia coli TOP10
Assay: shrunken log2 fold change of peptide-encoding DNA abundance (4.5 h post-induction vs induction); higher = less antimicrobial activity (less host growth inhibition)
Settings: time post-induction: 4.5 h; library: site-saturation at positions 5, 18, 19, 20
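Further: peptides expressed intracellularly from a pBAD plasmid library in pooled LB shake-flask culture, induced with 0.3% L-arabinose, DNA abundance read by NGS, three biological replicates, DESeq2 with apeglm shrinkage.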

Sequence	shrunken log2 fold change
RRIRGRPPRLPRPRPRPNKNPRP	0.3
RRIRGRPPRLPRPRPRPNLPPRP	0.133
RRIRGRPPRLPRPRPRPNNSPRP	-0.114
RRIRGRPPRLPRPRPRPNNTPRP	-0.0658
RRIRGRPPRLPRPRPRPNQHPRP	0.189
RRIRGRPPRLPRPRPRPNQNPRP	0.4
RRIRGRPPRLPRPRPRPNRFPRP	0.282
RRIRGRPPRLPRPRPRPNRGPRP	-0.0157
RRIRGRPPRLPRPRPRPNRYPRP	0.0443
RRIRGRPPRLPRPRPRPNTEPRP	0.299
RRIRGRPPRLPRPRPRPNWHPRP	0.27
RRIRGRPPRLPRPRPRPNYMPRP	-0.0439
RRIRGRPPRLPRPRPRPNYTPRP	-0.338
RRIRGRPPRLPRPRPRPPAHPRP	1.02
RRIRGRPPRLPRPRPRPPARPRP	1.2
RRIRGRPPRLPRPRPRPPCEPRP	0.433
RRIRGRPPRLPRPRPRPPCMPRP	0.293
RRIRGRPPRLPRPRPRPPFGPRP	0.738
RRIRGRPPRLPRPRPRPPFQPRP	0.358
RRIRGRPPRLPRPRPRPPHLPRP	0.558
RRIRGRPPRLPRPRPRPPIIPRP	-0.0886
RRIRGRPPRLPRPRPRPPKFPRP	0.0991
RRIRGRPPRLPRPRPRPPKPPRP	0.919
RRIRGRPPRLPRPRPRPPMHPRP	0.95
RRIRGRPPRLPRPRPRPPNKPRP	0.528

Sequence	shrunken log2 fold change
RRIRGRPPRLPRPRPRPPNRPRP	0.427
RRIRGRPPRLPRPRPRPPPNPRP	1.27
RRIRGRPPRLPRPRPRPPQEPRP	0.352
RRIRGRPPRLPRPRPRPPQMPRP	1.77
RRIRGRPPRLPRPRPRPPQNPRP	1.01
RRIRGRPPRLPRPRPRPPRDPRP	1.12
RRIRGRPPRLPRPRPRPPRQPRP	1.27
RRIRGRPPRLPRPRPRPPRRPRP	1.28
RRIRGRPPRLPRPRPRPPTNPRP	0.866
RRIRGRPPRLPRPRPRPPWDPRP	0.832
RRIRGRPPRLPRPRPRPPWFPRP	0.772
RRIRGRPPRLPRPRPRPPWMPRP	0.373
RRIRGRPPRLPRPRPRPPWSPRP	0.76
RRIRGRPPRLPRPRPRPPYRPRP	0.388
RRIRGRPPRLPRPRPRPQANPRP	0.111
RRIRGRPPRLPRPRPRPQCEPRP	1.31
RRIRGRPPRLPRPRPRPQCPPRP	0.337
RRIRGRPPRLPRPRPRPQDAPRP	0.832
RRIRGRPPRLPRPRPRPQEIPRP	0.427
RRIRGRPPRLPRPRPRPQEKPRP	0.0562
RRIRGRPPRLPRPRPRPQELPRP	0.27
RRIRGRPPRLPRPRPRPQFPPRP	-0.0214
RRIRGRPPRLPRPRPRPQGCPRP	0.394
RRIRGRPPRLPRPRPRPQHPPRP	0.426
RRIRGRPPRLPRPRPRPQKAPRP	-0.027

Sequence	shrunken log2 fold change
RRIRGRPPRLPRPRPRPQKIPRP	0.274
RRIRGRPPRLPRPRPRPQMCPRP	0.522
RRIRGRPPRLPRPRPRPQMTPRP	2.33
RRIRGRPPRLPRPRPRPQNDPRP	0.128
RRIRGRPPRLPRPRPRPQNKPRP	0.0435
RRIRGRPPRLPRPRPRPQNYPRP	-0.153
RRIRGRPPRLPRPRPRPQPLPRP	0.45
RRIRGRPPRLPRPRPRPQQCPRP	0.13
RRIRGRPPRLPRPRPRPQSEPRP	0.273
RRIRGRPPRLPRPRPRPQTMPRP	0.672
RRIRGRPPRLPRPRPRPQTNPRP	0.433
RRIRGRPPRLPRPRPRPQTQPRP	2.07
RRIRGRPPRLPRPRPRPQTSPRP	0.407
RRIRGRPPRLPRPRPRPRCMPRP	0.364
RRIRGRPPRLPRPRPRPRCPPRP	1.4
RRIRGRPPRLPRPRPRPRCSPRP	0.415
RRIRGRPPRLPRPRPRPRCTPRP	0.892
RRIRGRPPRLPRPRPRPRCVPRP	0.689
RRIRGRPPRLPRPRPRPRDMPRP	0.339
RRIRGRPPRLPRPRPRPRDWPRP	1.25
RRIRGRPPRLPRPRPRPREKPRP	0.969
RRIRGRPPRLPRPRPRPRFKPRP	0.449
RRIRGRPPRLPRPRPRPRGEPRP	1.04
RRIRGRPPRLPRPRPRPRGFPRP	0.817
RRIRGRPPRLPRPRPRPRIIPRP	0.0317
